These results are taken from patent publication US20110294728A1, “Antiviral Polypeptides” (priority 2008, published 2011).

The test deals with monomeric p51 subunit of HIV-1 RT (HIV-1) (UniProt P03366). Description: size-exclusion chromatography, 3.5 µM p51 with 20 µM FITC-PAW. (Size exclusion chromatography separates by hydrodynamic size, large species first.)

The substance “monomeric p51 subunit of HIV-1 RT (from UniProt P03366 600-1039) (enzyme)” showed a percent of p51 dimeric of 4.6%.
